# Source: patent US20230002480A1
# Legend:
# Assay in all cases: cell-based or functional assay
# [1] = target: HIV-1 Env of pseudovirus 6240_08_TA5_4622 (clade B (T/F)) (HIV-1)
# [2] = target: HIV-1 Env of pseudovirus 62357_14_D3_4589 (clade B (T/F)) (HIV-1)
# [3] = target: HIV-1 Env of pseudovirus Q769.d22 (clade A) (HIV-1)
# [4] = target: HIV-1 Env of pseudovirus Du172.17 (clade C) (HIV-1)
# [5] = target: HIV-1 Env of pseudovirus HIV-16055-2.3 (clade C) (HIV-1)
# [6] = target: HIV-1 Env of pseudovirus THRO4156.18 (clade B) (HIV-1)
# [7] = target: HIV-1 Env of pseudovirus Ce1172_H1 (clade C (T/F)) (HIV-1)
# [8] = target: HIV-1 Env of pseudovirus Ce2010_F5 (clade C (T/F)) (HIV-1)
# [9] = target: HIV-1 Env of pseudovirus Ce1086_B2 (clade C (T/F)) (HIV-1)
# [10] = target: HIV-1 Env of pseudovirus CNE17 (clade BC) (HIV-1)
# [11] = target: HIV-1 Env of pseudovirus Ce704809221_1B3 (clade C (T/F)) (HIV-1)
# [12] = target: HIV-1 Env of pseudovirus 249M B10 (clade C (T/F)) (HIV-1)
# [13] = target: HIV-1 Env of pseudovirus Q23.17 (clade A) (HIV-1)
# [14] = target: HIV-1 Env of pseudovirus ZM109F.PB4 (clade C) (HIV-1)
# [15] = target: HIV-1 Env pseudovirus 6480.v4.c25 (HIV-1)
# [16] = target: HIV-1 Env pseudovirus 3415.v1.c1 (HIV-1)
# [17] = target: HIV-1 Env pseudovirus 3016.v5.c45 (HIV-1)
# [18] = target: HIV-1 Env pseudovirus 6540.v4.c1 (HIV-1)
# [19] = target: HIV-1 Env pseudovirus 191955_A11 (HIV-1)
# [20] = target: HIV-1 Env pseudovirus R3265.c06 (HIV-1)
# [21] = target: HIV-1 Env pseudovirus X2131_C1_B5 (HIV-1)
# [22] = target: HIV-1 Env pseudovirus T251-18 (HIV-1)
# [23] = target: HIV-1 Env pseudovirus 620345.c01 (HIV-1)
# [24] = target: HIV-1 Env pseudovirus BJOX015000.11.5 (HIV-1)
# [25] = target: HIV-1 Env pseudovirus 6811.v7.c18 (HIV-1)
# [26] = target: HIV-1 Env pseudovirus P1981_C5_3 (HIV-1)
# [27] = target: HIV-1 Env pseudovirus 0815.v3.c3 (HIV-1)
# [28] = target: HIV-1 Env pseudovirus 6041.v3.c23 (HIV-1)
# [29] = target: HIV-1 Env of pseudovirus X2088_c9 (clade G) (HIV-1)
# [30] = target: HIV-1 Env of pseudovirus 620345.c01 (clade CRF01_AE) (HIV-1)
# [31] = target: HIV-1 Env of pseudovirus T251-18 (clade CRF02_AG) (HIV-1)
# [32] = target: HIV-1 Env of pseudovirus P0402_c2_11 (clade G) (HIV-1)
substance,measurement,setting,value
N49P11 (antibody),IC50,[1],0.72 µg/mL
same,IC80,[1],3 µg/mL
same,MPI,[1],100
same,IC50,[2],0.599 µg/mL
same,IC80,[2],3.56 µg/mL
same,MPI,[2],100
same,IC50,[3],0.048 µg/mL
same,IC80,[3],0.308 µg/mL
same,MPI,[3],100
same,IC50,[4],5.65 µg/mL
same,IC80,[4],17.9 µg/mL
same,MPI,[4],100
same,IC50,[5],0.091 µg/mL
same,IC80,[5],0.503 µg/mL
same,MPI,[5],100
same,IC50,[6],1.84 µg/mL
same,IC80,[6],10.4 µg/mL
same,MPI,[6],100
same,IC50,[7],3.55 µg/mL
same,IC80,[7],19.2 µg/mL
same,MPI,[7],100
same,IC50,[8],0.38 µg/mL
same,IC80,[8],3.27 µg/mL
same,MPI,[8],100
same,IC50,[9],2.19 µg/mL
same,IC80,[9],11.7 µg/mL
same,MPI,[9],100
same,IC50,[10],6.68 µg/mL
same,IC80,[10],25.6 µg/mL
same,MPI,[10],100
same,IC50,[11],0.644 µg/mL
same,IC80,[11],3.3 µg/mL
same,MPI,[11],100
same,IC50,[12],3.54 µg/mL
same,IC80,[12],12.9 µg/mL
same,MPI,[12],100
same,IC50,[13],0.034 µg/mL
same,IC80,[13],0.254 µg/mL
same,MPI,[13],100
same,IC50,[14],5.2 µg/mL
same,IC80,[14],19.4 µg/mL
same,MPI,[14],100
N49P18.1 (antibody),IC50,[1],35.2 µg/mL
same,IC80,[1],> 50 µg/mL
same,MPI,[1],60
same,IC50,[2],10.4 µg/mL
same,IC80,[2],48 µg/mL
same,MPI,[2],82
same,IC50,[3],4.92 µg/mL
same,IC80,[3],18.3 µg/mL
same,MPI,[3],97
same,IC50,[4],6.52 µg/mL
same,IC80,[4],21.3 µg/mL
same,MPI,[4],92
same,IC50,[5],8.04 µg/mL
same,IC80,[5],22.6 µg/mL
same,MPI,[5],97
same,IC50,[6],> 50 µg/mL
same,IC80,[6],> 50 µg/mL
same,MPI,[6],19
same,IC50,[7],46.4 µg/mL
same,IC80,[7],> 50 µg/mL
same,MPI,[7],52
same,IC50,[8],29 µg/mL
same,IC80,[8],> 50 µg/mL
same,MPI,[8],68
same,IC50,[9],8.98 µg/mL
same,IC80,[9],48 µg/mL
same,MPI,[9],92
same,IC50,[10],39.7 µg/mL
same,IC80,[10],> 50 µg/mL
same,MPI,[10],56
same,IC50,[11],41.6 µg/mL
same,IC80,[11],> 50 µg/mL
same,MPI,[11],59
same,IC50,[12],5.71 µg/mL
same,IC80,[12],23.1 µg/mL
same,MPI,[12],94
same,IC50,[13],1.16 µg/mL
same,IC80,[13],6.93 µg/mL
same,MPI,[13],100
same,IC50,[14],26.6 µg/mL
same,IC80,[14],> 50 µg/mL
same,MPI,[14],69
N49P19 (antibody),IC50,[15],3.04 µg/mL
same,IC80,[15],28.2 µg/mL
same,MPI,[15],87
same,IC50,[16],0.462 µg/mL
same,IC80,[16],2.04 µg/mL
same,MPI,[16],100
same,IC50,[17],> 50 µg/mL
same,IC80,[17],> 50 µg/mL
same,MPI,[17],9
same,IC50,[18],11.2 µg/mL
same,IC80,[18],> 50 µg/mL
same,MPI,[18],63
same,IC50,[19],> 50 µg/mL
same,IC80,[19],> 50 µg/mL
same,MPI,[19],16
same,IC50,[20],0.634 µg/mL
same,IC80,[20],2.73 µg/mL
same,MPI,[20],100
same,IC50,[21],2.52 µg/mL
same,IC80,[21],14.4 µg/mL
same,MPI,[21],91
same,IC50,[22],0.938 µg/mL
same,IC80,[22],4.2 µg/mL
same,MPI,[22],100
same,IC50,[23],> 50 µg/mL
same,IC80,[23],> 50 µg/mL
same,MPI,[23],0
same,IC50,[24],0.756 µg/mL
same,IC80,[24],3.17 µg/mL
same,MPI,[24],99
same,IC50,[25],1.3 µg/mL
same,IC80,[25],4.71 µg/mL
same,MPI,[25],97
same,IC50,[26],20.2 µg/mL
same,IC80,[26],> 50 µg/mL
same,MPI,[26],68
same,IC50,[27],0.176 µg/mL
same,IC80,[27],0.743 µg/mL
same,MPI,[27],100
same,IC50,[28],> 50 µg/mL
same,IC80,[28],> 50 µg/mL
same,MPI,[28],32
PG9 (antibody),"IC50, titer in TZM.bl cells",[29],> 50 µg/mL
same,"IC80, titer in TZM.bl cells",[29],> 50 µg/mL
same,"IC50, titer in TZM.bl cells",[30],1.33 µg/mL
same,"IC80, titer in TZM.bl cells",[30],> 50 µg/mL
same,"IC50, titer in TZM.bl cells",[31],> 50 µg/mL
same,"IC80, titer in TZM.bl cells",[31],> 50 µg/mL
same,"IC50, titer in TZM.bl cells",[32],0.296 µg/mL
same,"IC80, titer in TZM.bl cells",[32],2.37 µg/mL
PG16 (antibody),"IC50, titer in TZM.bl cells",[29],> 50 µg/mL
same,"IC80, titer in TZM.bl cells",[29],> 50 µg/mL
same,"IC50, titer in TZM.bl cells",[30],> 50 µg/mL
same,"IC80, titer in TZM.bl cells",[30],> 50 µg/mL
same,"IC50, titer in TZM.bl cells",[31],1.72 µg/mL
same,"IC80, titer in TZM.bl cells",[31],44.7 µg/mL
same,"IC50, titer in TZM.bl cells",[32],0.025 µg/mL
same,"IC80, titer in TZM.bl cells",[32],0.411 µg/mL
